Assay results reported in patent US20250082753A1 (Hoffmann-La Roche, published 2025).

Target: T1, CH2-CH3 AAA P329R CAR
T1 construct: Expressed on transduced primary human T cells (CD4+:CD8+ 1:1); also called CH2 CH3 AAA PR CAR
Assay: flow cytometry double staining of CH2-CH3 AAA P329R CAR T cells with 50 nM anti-PG VH3xVL1 huIgG-AF647 and 100 nM anti-AAA x FolR1 1+1 TCB Avi Biotin + BV421 streptavidin
Method: In order to assess if the P329G mutation and AAA mutations can be bound by the respective molecules simultaneously, a second staining was performed as follows (FIG. 12A). The cells were incubated with LIVE/DEAD™ Fixable Near-IR Dead (Invitrogen, #L34976) dye (1:1000 in DPBS) and 50 nM of anti-PG VH3×VL1 huIgG-AF647 for 20 minutes at 4° C.
Then the cells were washed twice with FACS-buffer. In a second step the cells were incubated with 100 nM of anti-AAA×FolR1-Avi-Biotin 1+1 TCB and 500 nM Fc_P329LALA (20 minutes at 4° C.). Fc_P329GLALA served as blocking molecule, to prevent binding of the anti-PG VH3×VL1 huIgG-AF647 to the PG mutation in the anti-AAA×FolR1-Avi-Biotin 1+1 TCB. After the incubation, the cells were washed twice with FACS-buffer. In a third step the cells were resuspended in BV421 Streptavidin (Biolegend, #405225) and 500 nM Fc_P329LALA (20 min, 4° C.). After another two washing steps, the cells were fixed (BD CytoFix, #554655) and analyzed on the FACS.

T1 sequence (chain, as listed by the source P329R P329R limits assumed): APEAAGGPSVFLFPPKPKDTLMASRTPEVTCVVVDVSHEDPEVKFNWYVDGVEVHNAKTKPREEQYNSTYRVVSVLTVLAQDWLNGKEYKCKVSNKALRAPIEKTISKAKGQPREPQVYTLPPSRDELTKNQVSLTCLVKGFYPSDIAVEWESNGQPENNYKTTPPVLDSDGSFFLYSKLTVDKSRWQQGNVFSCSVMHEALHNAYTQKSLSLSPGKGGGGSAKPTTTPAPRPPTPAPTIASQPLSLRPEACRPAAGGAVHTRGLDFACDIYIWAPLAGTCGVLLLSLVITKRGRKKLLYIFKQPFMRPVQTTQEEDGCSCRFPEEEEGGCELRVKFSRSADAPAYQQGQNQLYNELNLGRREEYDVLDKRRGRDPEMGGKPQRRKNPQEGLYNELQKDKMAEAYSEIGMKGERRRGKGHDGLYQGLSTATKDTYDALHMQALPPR

binding result: no binding (tested: 50 nM)
B1: Anti-P329G (VH3VL1) huIgG1 (antibody, V domains shown)
VH: EVQLVESGGGLVQPGGSLRLSCAASGFTFSRYWMNWVRQAPGKGLEWVGEITPDSSTINYAPSLKGRFTISRDNAKNSLYLQMNSLRAEDTAVYYCARPYDYGAWFASWGQGTLVTVSS
VL: QAVVTQEPSLTVSPGGTVTLTCRSSTGAVTTSNYANWVQEKPDHLFTGLIGGTNKRAPGTPARFSGSLLGGKAALTLSGAQPEDEAEYYCALWYSNHWVFGGGTKLTVL
notes: huIgG1; also called P1AE9957; anti-P329G VH3×VL1 AF647 labeled IgG
